How the values were obtained:
[1] = target: the molecule itself; assay: crystal structure; RasGRP1^CEC at 3.0 Å; hanging drop, 0.15 M sodium citrate tribasic, 22% PEG 3350, 1 mM MnCl2, 20°C; dimer generated by a crystallographic twofold axis
[2] = target: the molecule itself; assay: multiangle light scattering; RasGRP1^CC in solution, 30 μM to 1.5 mM monomer; data not shown

Row | Protein | binding result [1] | stoichiometry N [2]
1 | RasGRP1^CEC (human Ras guanine nucleotide releasing protein 1, residues 50-607: REM, Cdc25, EF and C1 domains) (domain or fragment, UniProt O95267 50-607, looked up, human RasGRP1 (full length 797 residues), residues 50-607, spanning the REM, Cdc25, EF and C1 domains; Crystallographic dimer; In gel filtration it forms dimers and higher order oligomers, depending on concentration; The structural model spans residues 53-593; 186-192 and 437-448 are not modelled; source: E. coli BL21(DE3), purified (HisTrap, tag removal with ULP1, second HisTrap, Superdex gel …)) MVSLGHLAKGASLDDLIDSCIQSFDADGNLCRSNQLLQVMLTMHRIVISSAELLQKVITLYKDALAKNSPGLCLKICYFVRYWITEFWVMFKMDASLTDTMEEFQELVKAKGEELHCRLIDTTQINARDWSRKLTQRIKSNTSKKRKVSLLFDHLEPEELSEHLTYLEFKSFRRISFSDYQNYLVNSCVKENPTMERSIALCNGISQWVQLMVLSRPTPQLRAEVFIKFIQVAQKLHQLQNFNTLMAVIGGLCHSSISRLKETSSHVPHEINKVLGEMTELLSSSRNYDNYRRAYGECTDFKIPILGVHLKDLISLYEAMPDYLEDGKVNVHKLLALYNHISELVQLQEVAPPLEANKDLVHLLTLSLDLYYTEDEIYELSYAREPRNHRAPPLTPSKPPVVVDWASGVSPKPDPKTISKHVQRMVDSVFKNYDHDQDGYISQEEFEKIAASFPFSFCVMDKDREGLISRDEITAYFMRASSIYSKLGLGFPHNFQETTYLKPTFCDNCAGFLWGVIKQGYRCKDCGMNCHKQCKDLVVFECKKRAKNPVAPTENNTS | binds | –
2 | RasGRP1^CC (human RasGRP1 C-terminal coiled coil, residues 739-793) (domain or fragment, UniProt O95267 739-793, looked up, human RasGRP1 (full length 797 residues), residues 739-793, containing the predicted coiled coil (747-789); Parallel dimeric coiled coil; The model holds residues 745-793 (molecule A) and 745-786 (molecule B); also called C-terminal oligomerization domain; source: E. coli BL21(DE3), purified (HisTrap, tag removal with ULP1, second HisTrap, Superdex gel filtration); not shown: His6, N-terminal, …) ELRHLRLPTYQELEQEINTLKADNDALKIQLKYAQKKIESLQLEKSNHVLAQMEQ | – | 2

From paper PMC3728621, “Structural analysis of autoinhibition in the Ras-specific exchange factor RasGRP1” (eLife, 2013)
